Data: US11141452 (dated 2021)
Non-standard residues stand in square brackets, D forms with d. Primed or numbered codes have the meaning given here. No end group written: not given here. *: point of attachment. NH(3,5-(CF3)2-benzyl) = FC(F)(F)c1cc(CN*)cc(C(F)(F)F)c1; NMePhe(4-F) = CN[C@@H](Cc1ccc(F)cc1)C(=O)O; Phe(4-F) = N[C@@H](Cc1ccc(F)cc1)C(=O)O; NMeF = CN[C@@H](Cc1ccccc1)C(=O)O; 4‑Apac = not defined here; 4Abz = Nc1ccc(C(=O)O)cc1; 4Amb′ = not defined here; Ahx = NCCCCCC(=O)O; GABA = NCCCC(=O)O; βAla = NCCC(=O)O

Target: mu opioid receptor (MOR) (UniProt P35372)
Sequence (P35372 whole entry): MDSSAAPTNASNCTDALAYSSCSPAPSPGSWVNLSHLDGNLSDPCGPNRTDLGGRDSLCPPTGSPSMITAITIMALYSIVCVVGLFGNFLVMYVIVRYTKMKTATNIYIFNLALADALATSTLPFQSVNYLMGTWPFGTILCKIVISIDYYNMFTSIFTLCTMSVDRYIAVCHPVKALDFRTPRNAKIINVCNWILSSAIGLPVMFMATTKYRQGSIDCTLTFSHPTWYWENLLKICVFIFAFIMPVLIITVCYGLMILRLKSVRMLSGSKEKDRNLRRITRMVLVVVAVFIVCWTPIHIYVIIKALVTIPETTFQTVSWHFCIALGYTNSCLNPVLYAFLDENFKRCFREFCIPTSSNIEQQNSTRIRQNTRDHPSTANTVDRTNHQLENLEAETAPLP
Test: competition

Q: Which Ki does the source give for XAGFPLW (Dmt1, D-Ala2, NMePhe4; C-terminal NH-Bn(3',5'-(CF3)2)) [AKG115] here?
A: 1 nM

Q: With XAGFPLW (Dmt1, D-Ala2, Phe(4-I)4; C-terminal NH-Bn(3',5'-(CF3)2)) [AKG193] as the binder, how does the Ki read?
A: 6 nM

Q: With XAGFPLW (Dmt1, D-Ala2, NMePhe(4-F)4; C-terminal NH-Bn(3',5'-(CF3)2)) [AKG128] as the binder, how does the Ki read?
A: 1 nM

Q: How did the Ki turn out when Y[dA]G[Phe(4-F)]PLW-{NH(3,5-(CF3)2-benzyl)} [AKG190] was run?
A: 4 nM

Q: With XAGFPLW (Dmt1, D-Ala2, Phe(4-Cl)4; C-terminal NH-Bn(3',5'-(CF3)2)) [AKG191] as the binder, how does the Ki read?
A: 2 nM

Q: How did the Ki turn out when XAGFPLW (Dmt1, D-Ala2, Phe(4-Br)4; C-terminal NH-Bn(3',5'-(CF3)2)) [AKG192] was run?
A: 5 nM

Q: With Y[dA]GFPLW-{NH(3,5-(CF3)2-benzyl)} [TY012] as the binder, how does the Ki read?
A: 9.5 nM

Target: mu opioid receptor (MOR) (UniProt P35372)
Test: competition
Remark: another data set of the same source

Q: For Y[dA]G[NMePhe(4-F)]GPLW-{NH(3,5-(CF3)2-benzyl)} [AKG131], which Ki is on record?
A: 185 nM

Q: Y[dA]G[NMeF][4Amb′]PLW-{NH(3,5-(CF3)2-benzyl)} (reading uncertain) [AKG125] was tested. Which Ki did it give?
A: 5 nM

Q: Which Ki does the source give for Y[dA]G[NMeF][4‑Apac]PLW-{NH(3,5-(CF3)2-benzyl)} (reading uncertain) [AKG177] here?
A: 1 nM

Q: Which Ki does the source give for Y[dA]G[Phe(4-F)]GPLW-{NH(3,5-(CF3)2-benzyl)} [AKG130] here?
A: 9 nM

Q: Which Ki does the source give for Y[dA]G[NMeF]GPLW-{NH(3,5-(CF3)2-benzyl)} [AKG113] here?
A: 3 nM

Q: For YAGFXPLW (D-Ala2, NMePhe4, Nle5; C-terminal NH-Bn(3',5'-(CF3)2)) [AKG112], which Ki is on record?
A: 13 nM

Q: Y[dA]G[NMeF][4Abz]PLW-{NH(3,5-(CF3)2-benzyl)} [AKG176] was tested. Which Ki did it give?
A: 1 nM

Q: How did the Ki turn out when Y[dA]G[NMeF][GABA]PLW-{NH(3,5-(CF3)2-benzyl)} [AKG123] was run?
A: 9 nM

Q: How did the Ki turn out when Y[dA]G[NMeF][Ahx]PLW-{NH(3,5-(CF3)2-benzyl)} [AKG124] was run?
A: 7 nM

Q: Which Ki does the source give for Y[dA]G[NMeF][βAla]PLW-{NH(3,5-(CF3)2-benzyl)} [AKG119] here?
A: 8 nM

Target: T1, human NK1 receptor (human, UniProt P25103)
T1 chain: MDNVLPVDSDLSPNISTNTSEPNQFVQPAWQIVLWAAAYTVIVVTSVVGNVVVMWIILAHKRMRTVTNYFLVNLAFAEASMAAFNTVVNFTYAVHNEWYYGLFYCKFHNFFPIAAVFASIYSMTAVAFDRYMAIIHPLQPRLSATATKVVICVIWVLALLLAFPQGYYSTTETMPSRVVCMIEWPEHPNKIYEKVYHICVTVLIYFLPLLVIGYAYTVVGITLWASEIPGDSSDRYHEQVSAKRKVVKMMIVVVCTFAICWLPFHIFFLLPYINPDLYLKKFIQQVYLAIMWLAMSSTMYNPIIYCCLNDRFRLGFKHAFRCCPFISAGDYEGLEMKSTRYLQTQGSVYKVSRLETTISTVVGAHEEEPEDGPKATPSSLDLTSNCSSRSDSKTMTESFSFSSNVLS
Test: competition

Q: Which Ki does the source give for XAGFPLW (Dmt1, D-Ala2, NMePhe(4-F)4; C-terminal NH-Bn(3',5'-(CF3)2)) [AKG128] here?
A: 2.62 nM

Q: With Y[dA]G[Phe(4-F)]PLW-{NH(3,5-(CF3)2-benzyl)} [AKG190] as the binder, how does the Ki read?
A: 5.61 nM

Q: How did the Ki turn out when XAGFPLW (Dmt1, D-Ala2, Phe(4-Br)4; C-terminal NH-Bn(3',5'-(CF3)2)) [AKG192] was run?
A: 2.54 nM

Q: Which Ki does the source give for Y[dA]GFPLW-{NH(3,5-(CF3)2-benzyl)} [TY012] here?
A: 0.6 nM

Target: T2, delta opioid receptor (DOR) (UniProt P41143)
T2 chain: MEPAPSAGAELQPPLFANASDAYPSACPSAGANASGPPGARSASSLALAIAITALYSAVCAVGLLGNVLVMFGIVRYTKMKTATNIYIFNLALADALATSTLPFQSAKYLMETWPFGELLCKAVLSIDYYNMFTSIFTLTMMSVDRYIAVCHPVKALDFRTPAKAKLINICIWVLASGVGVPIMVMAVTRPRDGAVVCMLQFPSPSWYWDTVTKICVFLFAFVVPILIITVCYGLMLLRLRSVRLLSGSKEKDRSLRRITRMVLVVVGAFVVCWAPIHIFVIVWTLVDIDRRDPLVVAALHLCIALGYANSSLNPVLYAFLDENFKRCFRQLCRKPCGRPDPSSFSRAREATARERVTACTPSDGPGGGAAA
Test: competition

Q: How did the Ki turn out when XAGFPLW (Dmt1, D-Ala2, NMePhe4; C-terminal NH-Bn(3',5'-(CF3)2)) [AKG115] was run?
A: 5 nM

Q: How did the Ki turn out when Y[dA]G[Phe(4-F)]PLW-{NH(3,5-(CF3)2-benzyl)} [AKG190] was run?
A: 0.2 nM

Q: For XAGFPLW (Dmt1, D-Ala2, Phe(4-Cl)4; C-terminal NH-Bn(3',5'-(CF3)2)) [AKG191], which Ki is on record?
A: 5 nM

Target: T3, rat NK1 receptor (rat, UniProt P14600)
T3 chain: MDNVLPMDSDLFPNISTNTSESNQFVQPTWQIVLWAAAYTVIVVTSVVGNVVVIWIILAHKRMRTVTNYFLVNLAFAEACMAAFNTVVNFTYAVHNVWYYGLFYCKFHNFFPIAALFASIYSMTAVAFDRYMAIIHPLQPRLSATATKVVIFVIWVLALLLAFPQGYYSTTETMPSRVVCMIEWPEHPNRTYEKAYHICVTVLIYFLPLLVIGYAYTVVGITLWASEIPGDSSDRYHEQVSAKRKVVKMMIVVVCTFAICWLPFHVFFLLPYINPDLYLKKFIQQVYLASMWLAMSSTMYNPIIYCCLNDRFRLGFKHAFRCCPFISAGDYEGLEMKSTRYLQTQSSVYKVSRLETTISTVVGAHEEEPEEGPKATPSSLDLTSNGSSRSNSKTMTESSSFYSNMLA
Test: competition

Q: For XAGFPLW (Dmt1, D-Ala2, NMePhe4; C-terminal NH-Bn(3',5'-(CF3)2)) [AKG115], which Ki is on record?
A: 48.3 nM

Q: With XAGFPLW (Dmt1, D-Ala2, NMePhe(4-F)4; C-terminal NH-Bn(3',5'-(CF3)2)) [AKG128] as the binder, how does the Ki read?
A: 33.8 nM

Q: Y[dA]G[Phe(4-F)]PLW-{NH(3,5-(CF3)2-benzyl)} [AKG190] was tested. Which Ki did it give?
A: 34.4 nM

Q: XAGFPLW (Dmt1, D-Ala2, Phe(4-Cl)4; C-terminal NH-Bn(3',5'-(CF3)2)) [AKG191] was tested. Which Ki did it give?
A: 26.5 nM

Q: With Y[dA]GFPLW-{NH(3,5-(CF3)2-benzyl)} [TY012] as the binder, how does the Ki read?
A: 33 nM

Target: T1, human NK1 receptor
Test: competition
Remark: another data set of the same source

Q: How did the Ki turn out when Y[dA]G[NMePhe(4-F)]GPLW-{NH(3,5-(CF3)2-benzyl)} [AKG131] was run?
A: 2.14 nM

Q: Which Ki does the source give for Y[dA]G[NMeF][4Amb′]PLW-{NH(3,5-(CF3)2-benzyl)} (reading uncertain) [AKG125] here?
A: 2.27 nM

Q: Which Ki does the source give for Y[dA]G[NMeF][4‑Apac]PLW-{NH(3,5-(CF3)2-benzyl)} (reading uncertain) [AKG177] here?
A: 5.28 nM

Q: For Y[dA]G[Phe(4-F)]GPLW-{NH(3,5-(CF3)2-benzyl)} [AKG130], which Ki is on record?
A: 1.54 nM

Q: Which Ki does the source give for Y[dA]G[NMeF]GPLW-{NH(3,5-(CF3)2-benzyl)} [AKG113] here?
A: 15 nM

Q: Which Ki does the source give for YAGFXPLW (D-Ala2, NMePhe4, Nle5; C-terminal NH-Bn(3',5'-(CF3)2)) [AKG112] here?
A: 14 nM

Q: Y[dA]G[NMeF][4Abz]PLW-{NH(3,5-(CF3)2-benzyl)} [AKG176] was tested. Which Ki did it give?
A: 4.12 nM

Q: Which Ki does the source give for Y[dA]G[NMeF][GABA]PLW-{NH(3,5-(CF3)2-benzyl)} [AKG123] here?
A: 1.56 nM

Q: Y[dA]G[NMeF][Ahx]PLW-{NH(3,5-(CF3)2-benzyl)} [AKG124] was tested. Which Ki did it give?
A: 1.22 nM

Q: For Y[dA]G[NMeF][βAla]PLW-{NH(3,5-(CF3)2-benzyl)} [AKG119], which Ki is on record?
A: 0.93 nM

Target: T3, rat NK1 receptor
Test: competition
Remark: another data set of the same source

Q: With Y[dA]G[NMePhe(4-F)]GPLW-{NH(3,5-(CF3)2-benzyl)} [AKG131] as the binder, how does the Ki read?
A: 89.1 nM

Q: Which Ki does the source give for Y[dA]G[NMeF][4Amb′]PLW-{NH(3,5-(CF3)2-benzyl)} (reading uncertain) [AKG125] here?
A: 29.9 nM

Q: Which Ki does the source give for Y[dA]G[NMeF][4‑Apac]PLW-{NH(3,5-(CF3)2-benzyl)} (reading uncertain) [AKG177] here?
A: 74.3 nM

Q: How did the Ki turn out when Y[dA]G[Phe(4-F)]GPLW-{NH(3,5-(CF3)2-benzyl)} [AKG130] was run?
A: 72.5 nM

Q: Y[dA]G[NMeF]GPLW-{NH(3,5-(CF3)2-benzyl)} [AKG113] was tested. Which Ki did it give?
A: 60.5 nM

Q: How did the Ki turn out when Y[dA]G[NMeF][4Abz]PLW-{NH(3,5-(CF3)2-benzyl)} [AKG176] was run?
A: 77.8 nM

Q: With Y[dA]G[NMeF][Ahx]PLW-{NH(3,5-(CF3)2-benzyl)} [AKG124] as the binder, how does the Ki read?
A: 44.3 nM

Q: How did the Ki turn out when Y[dA]G[NMeF][βAla]PLW-{NH(3,5-(CF3)2-benzyl)} [AKG119] was run?
A: 29.4 nM

Target: T2, delta opioid receptor (DOR)
Test: competition
Remark: another data set of the same source

Q: How did the Ki turn out when Y[dA]G[NMePhe(4-F)]GPLW-{NH(3,5-(CF3)2-benzyl)} [AKG131] was run?
A: 17 nM

Q: Y[dA]G[NMeF][4Amb′]PLW-{NH(3,5-(CF3)2-benzyl)} (reading uncertain) [AKG125] was tested. Which Ki did it give?
A: 117 nM

Q: Which Ki does the source give for Y[dA]G[NMeF][4‑Apac]PLW-{NH(3,5-(CF3)2-benzyl)} (reading uncertain) [AKG177] here?
A: 70 nM

Q: With Y[dA]G[Phe(4-F)]GPLW-{NH(3,5-(CF3)2-benzyl)} [AKG130] as the binder, how does the Ki read?
A: 5 nM

Q: For Y[dA]G[NMeF]GPLW-{NH(3,5-(CF3)2-benzyl)} [AKG113], which Ki is on record?
A: 46 nM

Q: YAGFXPLW (D-Ala2, NMePhe4, Nle5; C-terminal NH-Bn(3',5'-(CF3)2)) [AKG112] was tested. Which Ki did it give?
A: 22 nM

Q: For Y[dA]G[NMeF][4Abz]PLW-{NH(3,5-(CF3)2-benzyl)} [AKG176], which Ki is on record?
A: 82 nM

Q: How did the Ki turn out when Y[dA]G[NMeF][GABA]PLW-{NH(3,5-(CF3)2-benzyl)} [AKG123] was run?
A: 3 nM

Q: How did the Ki turn out when Y[dA]G[NMeF][Ahx]PLW-{NH(3,5-(CF3)2-benzyl)} [AKG124] was run?
A: 31 nM

Q: For Y[dA]G[NMeF][βAla]PLW-{NH(3,5-(CF3)2-benzyl)} [AKG119], which Ki is on record?
A: 46 nM
